This test has as its target T1, 재조합 인간 TIGIT 단백질 (Acro Biosystems) (human, UniProt Q495A1 22-141).
T1 construct: Bought recombinant protein; also called recombinant human TIGIT; TIGIT 항원
T1 sequence: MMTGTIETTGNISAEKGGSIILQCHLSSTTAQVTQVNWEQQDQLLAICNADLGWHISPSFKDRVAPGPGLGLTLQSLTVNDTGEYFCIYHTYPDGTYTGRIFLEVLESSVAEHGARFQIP
Briefly: SPR, Biacore T200 multi-cycle kinetics, 25C; antibody captured on anti-human IgG CM5 chip, recombinant human TIGIT as analyte; 1:1 model. For orientation: In SPR one partner is held on a chip, and binding of the other changes the refractive index at the surface.

We go through one molecule from patent KR20230171885A (dated 2023).

B1: 항-TIGIT 항체 7A6 (7A6_VH3/Vk5) (antibody, human IgG1, kappa, V domains shown)
VH: QVQLQESGPGLVKPSQTLSLTCTVTGYSITSDYAWNWIRQPPGKGLEWMGYISYSGSARYNPSLKSRVTISRDTSKNQFSLKLSSVTAEDTATYYCARKGYPAYFAYWGQGTLVTVSS
VL: DIQMTQSPSSLSASVGDRVSITCKASQDVSTAVAWYQQKPGQAPRLLIYSASYRYTGVPDRFSGSGSGTDFTLTISSLQPEDFATYYCQHHYSTPYTFGQGTKLEIKR
notes: Parental IgG1/kappa antibody without RS15; also called 7A6 VH3/Vκ5; Parental Ab (7A6)
Regarding B1, the Kd was found to be 0.884 nM, the koff was 0.00158 s⁻¹ and the kon is 1.78e+06 M⁻¹ s⁻¹.

A word on the Kd: it is the equilibrium constant for the complex coming apart. The koff is a measure of how fast the partners let go of each other. What is called kon is the rate constant with which the complex forms.
